Assay results reported in IntAct's records for PubMed 17581628.

B1: DCC-interacting protein 13-alpha (Homo sapiens), Q9UKG1 (parent)
chain: MPGIDKLPIEETLEDSPQTRSLLGVFEEDATAISNYMNQLYQAMHRIYDAQNELSAATHLTSKLLKEYEKQRFPLGGDDEVMSSTLQQFSKVIDELSSCHAVLSTQLADAMMFPITQFKERDLKEILTLKEVFQIASNDHDAAINRYSRLSKKRENDKVKYEVTEDVYTSRKKQHQTMMHYFCALNTLQYKKKIALLEPLLGYMQAQISFFKMGSENLNEQLEEFLANIGTSVQNVRREMDSDIETMQQTIEDLEVASDPLYVPDPDPTKFPVNRNLTRKAGYLNARNKTGLVSSTWDRQFYFTQGGNLMSQARGDVAGGLAMDIDNCSVMAVDCEDRRYCFQITSFDGKKSSILQAESKKDHEEWICTINNISKQIYLSENPEETAARVNQSALEAVTPSPSFQQRHESLRPAAGQSRPPTARTSSSGSLGSESTNLAALSLDSLVAPDTPIQFDIISPVCEDQPGQAKAFGQGGRRTNPFGESGGSTKSETEDSILHQLFIVRFLGSMEVKSDDHPDVVYETMRQILAARAIHNIFRMTESHLLVTCDCLKLIDPQTQVTRLTFPLPCVVLYATHQENKRLFGFVLRTSSGRSESNLSSVCYIFESNNEGEKICDSVGLAKQIALHAELDRRASEKQKEIERVKEKQQKELNKQKQIEKDLEEQSRLIAASSRPNQASSEGQFVVLSSSQSEESDLGEGGKKRESEA
B2: Ras-related protein Rab-5A (Homo sapiens), P20339 (parent)
chain: MASRGATRPNGPNTGNKICQFKLVLLGESAVGKSSLVLRFVKGQFHEFQESTIGAAFLTQTVCLDDTTVKFEIWDTAGQERYHSLAPMYYRGAQAAIVVYDITNEESFARAKNWVKELQRQASPNIVIALSGNKADLANKRAVDFQEAQSYADDNSLLFMETSAKTSMNVNEIFMAIAKKLPKNEPQNPGANSARGRGVDLTEPTQPTRNQCCSN
partner: B1 chain

Variants of: B1
Conditions: with rab21_human RAB21, Q9UL25
rab21_human RAB21, Q9UL25, sequence (Q9UL25 whole entry): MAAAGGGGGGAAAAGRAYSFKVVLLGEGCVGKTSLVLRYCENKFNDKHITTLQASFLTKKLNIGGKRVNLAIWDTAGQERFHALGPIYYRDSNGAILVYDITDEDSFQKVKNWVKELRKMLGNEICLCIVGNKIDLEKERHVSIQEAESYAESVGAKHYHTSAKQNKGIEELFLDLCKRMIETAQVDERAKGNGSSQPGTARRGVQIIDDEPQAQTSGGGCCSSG

Row | Variant | effect of a mutation on the interaction
1 | D348K | disrupting interaction

Variants of: B1
Conditions: with rab21_human RAB21, Q9UL25
Remark: another data set of the same source

Row | Variant | effect of a mutation on the interaction
2 | D324A | disrupting interaction

Variants of: B1
Conditions: with rab5a_human RAB5A

Row | Variant | effect of a mutation on the interaction
3 | D324A | disrupting interaction

Variants of: B1
Conditions: with rab21_human RAB21, Q9UL25
Remark: another data set of the same source

Row | Variant | effect of a mutation on the interaction
4 | G319R | disrupting interaction

Variants of: B1
Conditions: with rab5a_human RAB5A
Remark: another data set of the same source

Row | Variant | effect of a mutation on the interaction
5 | G319R | disrupting interaction

Variants of: B1
Conditions: with rab5a_human RAB5A
Remark: another data set of the same source

Row | Variant | effect of a mutation on the interaction
6 | N308D | disrupting interaction

Variants of: B1
Conditions: with rab21_human RAB21, Q9UL25
Remark: another data set of the same source

Row | Variant | effect of a mutation on the interaction
7 | N308D | disrupting interaction

Variants of: B1
Conditions: with rab21_human RAB21, Q9UL25
Remark: another data set of the same source

Row | Variant | effect of a mutation on the interaction
8 | L321D | decreasing interaction

Variants of: B1
Conditions: with rab5a_human RAB5A
Remark: another data set of the same source

Row | Variant | effect of a mutation on the interaction
9 | L321D | disrupting interaction

Variants of: B1
Conditions: with rab5a_human RAB5A
Remark: another data set of the same source

Row | Variant | effect of a mutation on the interaction
10 | V25D | decreasing interaction

Variants of: B1
Conditions: with rab21_human RAB21, Q9UL25
Remark: another data set of the same source

Row | Variant | effect of a mutation on the interaction
11 | V25D | decreasing interaction

Variants of: B1
Conditions: with rab21_human RAB21, Q9UL25
Remark: another data set of the same source

Row | Variant | effect of a mutation on the interaction
12 | E28K | decreasing interaction

Variants of: B1
Conditions: with rab5a_human RAB5A
Remark: another data set of the same source

Row | Variant | effect of a mutation on the interaction
13 | A318D | disrupting interaction

Variants of: B1
Conditions: with rab21_human RAB21, Q9UL25
Remark: another data set of the same source

Row | Variant | effect of a mutation on the interaction
14 | D316R | disrupting interaction

Variants of: B1
Conditions: with rab5a_human RAB5A
Remark: another data set of the same source

Row | Variant | effect of a mutation on the interaction
15 | M310K | disrupting interaction

Variants of: B1
Conditions: with rab21_human RAB21, Q9UL25
Remark: another data set of the same source

Row | Variant | effect of a mutation on the interaction
16 | M310K | disrupting interaction

Variants of: B2
Conditions: with dp13a_human APPL1, Q9UKG1

Row | Variant | effect of a mutation on the interaction
17 | L85R | disrupting interaction

Variants of: B2
Conditions: with dp13a_human APPL1, Q9UKG1
Remark: another data set of the same source

Row | Variant | effect of a mutation on the interaction
18 | F48N | decreasing interaction

Variants of: B2
Conditions: with dp13a_human APPL1, Q9UKG1
Remark: another data set of the same source

Row | Variant | effect of a mutation on the interaction
19 | W74R | disrupting interaction

Variants of: B2
Conditions: with dp13a_human APPL1, Q9UKG1
Remark: another data set of the same source

Row | Variant | effect of a mutation on the interaction
20 | Y89R | decreasing interaction

Variants of: B2
Conditions: with dp13a_human APPL1, Q9UKG1
Remark: another data set of the same source

Row | Variant | effect of a mutation on the interaction
21 | M88S | decreasing interaction

Variants of: B2
Conditions: with dp13a_human APPL1, Q9UKG1
Remark: another data set of the same source

Row | Variant | effect of a mutation on the interaction
22 | H46D | disrupting interaction

Variants of: B2
Conditions: with dp13a_human APPL1, Q9UKG1
Remark: another data set of the same source

Row | Variant | effect of a mutation on the interaction
23 | K42E | decreasing interaction
